B1: human mini TyrRS (ligand)
chain: MGDAPSPEEKLHLITRNLQEVLGEEKLKEILKERELKIYWGTATTGKPHVAYFVPMSKIADFLKAGCEVTILFADLHAYLDNMKAPWELLELRVSYYENVIKAMLESIGVPLEKLKFIKGTDYQLSKEYTLDVYRLSSVVTQHDSKKAGAEVVKQVEHPLLSGLLYPGLQALDEEYLKVDAQFGGIDQRKIFTFAEKYLPALGYSKRVHLMNPMVPGLTGSKMSSSEEESKIDLLDRKEDVKKKLKKAFCEPGNVENNGVLSFIKHVLFPLKSEFVILRDEKWGGNKTYTAYVDLEKDFAAEVVHPGDLKNSVEVALNKLLDPIREKFNTPALKKLASAAYPDPSKQKPMAKGPAKNSEPEEVILEHHHHHH
modifications: Radioiodinated (125I) where used as the labelled ligand; iodinated residues not stated. Runs as a homodimer on gel filtration.
notes: Recombinant, made in E. coli
B2: type A IL-8 receptor (receptor, UniProt P25024 1-350, looked up)
chain: MSNITDPQMWDFDDLNFTGMPPADEDYSPCMLETETLNKYVVIIAYALVFLLSLLGNSLVMLVILYSRVGRSVTDVYLLNLALADLLFALTLPIWAASKVNGWIFGTFLCKVVSLLKEVNFYSGILLLACISVDRYLAIVHATRTLTQKRHLVKFVCLGCWGLSMNLSLPFFLFRQAYHPNNSSPVCYEVLGNDTAKWRMVLRILPHTFGFIVPLFVMLFCYGFTLRTLFKAHMGQKHRAMRVIFAVVLIFLLCWLPYNLVLLADTLMRTQVIQESCERRNNIGRALDATEILGFLHSCLNPIIYAFIGQNFRHGFLKILAMHGLVSKEFLARHRVTSYTSSSVNVSSNL
notes: whole, on cells; also called IL-8 receptor type A; CXCR1

Tests used:
[1] = target: PMN receptor for mini TyrRS (on human PMNs) (human); test: Scatchard analysis of ^125I-mini TyrRS binding to human PMNs at 4 C
Description: The supernatant was aspirated, and the cell sediment was resuspended using EcoLite (ICN Biomedicals, Irvine, Calif.) and analyzed in a scintillation counter.

human mini TyrRS = target: B1; test: radioligand binding (Scatchard) to RBL2H3 cells transfected with the type A IL-8 receptor
Procedure: Following incubation, cells were separated from unbound radioactivity as described herein.
Untransfected RBL2H3 cells express neither the type A nor type B receptors.

Kd [1] [nM] | Kd (human mini TyrRS) [nM] | Binder
21 |  | B1
 | 8 | B2

Reference: patent US20040152079A1 (Scripps Research, published 2004)
